According to publication PMC3402500, “Genes for Carbon Metabolism and the ToxA Virulence Factor in Pseudomonas aeruginosa Are Regulated through Molecular Interactions of PtxR and PtxS” (PLoS ONE, 2012):

T1: PtxR (Pseudomonas aeruginosa PAO1) (UniProt P72131)
T1 sequence: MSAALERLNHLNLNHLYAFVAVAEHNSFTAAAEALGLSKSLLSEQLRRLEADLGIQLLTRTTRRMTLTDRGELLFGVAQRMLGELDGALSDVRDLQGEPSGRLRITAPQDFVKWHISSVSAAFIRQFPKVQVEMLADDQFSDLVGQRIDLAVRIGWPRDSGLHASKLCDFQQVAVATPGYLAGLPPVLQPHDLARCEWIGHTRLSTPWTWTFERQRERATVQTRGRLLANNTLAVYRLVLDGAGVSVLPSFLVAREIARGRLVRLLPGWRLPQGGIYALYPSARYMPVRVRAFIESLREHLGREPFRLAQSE

T2: PtxS (Pseudomonas aeruginosa PAO1) (UniProt G3XD97)
T2 sequence: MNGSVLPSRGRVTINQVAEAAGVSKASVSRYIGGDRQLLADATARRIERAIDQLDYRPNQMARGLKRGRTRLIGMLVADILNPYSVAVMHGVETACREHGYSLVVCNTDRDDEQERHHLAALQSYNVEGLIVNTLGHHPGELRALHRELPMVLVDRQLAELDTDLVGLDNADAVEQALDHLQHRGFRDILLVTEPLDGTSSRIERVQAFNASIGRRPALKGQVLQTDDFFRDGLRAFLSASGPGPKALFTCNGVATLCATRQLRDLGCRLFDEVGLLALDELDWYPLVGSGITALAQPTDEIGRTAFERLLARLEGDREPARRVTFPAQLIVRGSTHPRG

T3: PtxR;PtxS (Pseudomonas aeruginosa PAO1;Pseudomonas aeruginosa PAO1) (UniProt P72131+G3XD97)
T3 sequence 1: T1 sequence
T3 sequence 2: T2 sequence

T4: PtxS (Pseudomonas aeruginosa PAO1, UniProt G3XD97 1-340)
T4 sequence: T2 sequence

T5: PtxR (Pseudomonas aeruginosa PAO1, UniProt P72131 1-312)
T5 sequence: T1 sequence

B1: PtxR (natural protein)
chain: T1 sequence
notes: PtxR, LysR-type transcriptional regulator of Pseudomonas aeruginosa PAO1; ptxR gene amplified from chromosomal DNA and cloned NheI/XhoI into pET24b(+); The NheI/XhoI cloning into pET24b(+) may add a few vector residues at both ends; source: E. coli BL21 (DE3), purified (His-Trap chelating column); not shown: His6, C-terminal, kept
B2: PtxS (natural protein)
chain: T2 sequence
notes: PtxS, LacI family transcriptional regulator of Pseudomonas aeruginosa PAO1; ptxS gene amplified from chromosomal DNA and cloned NheI/XhoI into pET24b(+); The NheI/XhoI cloning into pET24b(+) may add a few vector residues at both ends; source: E. coli BL21 (DE3), purified (His-Trap chelating column); not shown: His6, C-terminal, kept
B3: PtoxA 50-mer (-58 to -8) (dsDNA)
DNA 1: GATATCGGCTGCTGGCCAGGGGCGCCAGCGCCGACAGCCTCGTGCTTCAA
DNA 2: TTGAAGCACGAGGCTGTCGGCGCTGGCGCCCCTGGCCAGCAGCCGATATC
B4: PtoxA 50-mer mutant operator (dsDNA)
DNA 1: GATATCGGCTGCTGGCCAGGCCGACAGCCTCGTGCTTCAA
DNA 2: TTGAAGCACGAGGCTGTCGGCCTGGCCAGCAGCCGATATC

Tests used:
[1] = target: T1, PtxR (Pseudomonas aeruginosa PAO1); assay: EMSA; details: ITC: 50 mM HEPES pH 7.9, 300 mM NaCl, 1 mM DTT, 10% glycerol, 20 C. EMSA/footprint: 50 mM Tris-HCl pH 7.5, 10 mM NaCl, 0.5 M Mg acetate (so in the source), 0.1 mM …
[2] = target: T2, PtxS (Pseudomonas aeruginosa PAO1); assay: EMSA; details: ITC: 50 mM HEPES pH 7.9, 300 mM NaCl, 1 mM DTT, 10% glycerol, 20 C. EMSA/footprint: 50 mM Tris-HCl pH 7.5, 10 mM NaCl, 0.5 M Mg acetate (so in the source), 0.1 mM …
[3] = target: T1, PtxR (Pseudomonas aeruginosa PAO1); assay: DNase I footprinting; details: ITC: 50 mM HEPES pH 7.9, 300 mM NaCl, 1 mM DTT, 10% glycerol, 20 C. EMSA/footprint: 50 mM Tris-HCl pH 7.5, 10 mM NaCl, 0.5 M Mg acetate (so in the source), 0.1 mM …
[4] = target: T3, PtxR;PtxS (Pseudomonas aeruginosa PAO1;Pseudomonas aeruginosa PAO1); assay: DNase I footprinting; details: ITC: 50 mM HEPES pH 7.9, 300 mM NaCl, 1 mM DTT, 10% glycerol, 20 C. EMSA/footprint: 50 mM Tris-HCl pH 7.5, 10 mM NaCl, 0.5 M Mg acetate (so in the source), 0.1 mM …
[5] = target: T2, PtxS (Pseudomonas aeruginosa PAO1); assay: DNase I footprinting; details: ITC: 50 mM HEPES pH 7.9, 300 mM NaCl, 1 mM DTT, 10% glycerol, 20 C. EMSA/footprint: 50 mM Tris-HCl pH 7.5, 10 mM NaCl, 0.5 M Mg acetate (so in the source), 0.1 mM …
PtxS [6] = target: B2; assay: native gel or EMSA; native polyacrylamide gel, 10 µM homogeneous PtxS, PtxR or both mixed, 1 h at 120 V, Coomassie stain, confirmed by western blot with an anti-His tag antibody; details: both partners purified
PtxR [7] = target: B1; assay: ITC; free proteins; 50 µM PtxS in 3.2 µl aliquots into PtxR (3 µM by the legend); 20°C, 50 mM HEPES pH 7.9, 300 mM NaCl, 1 mM dithiothreitol, 10% glycerol; two binding site model; details: both partners purified
PtxR [8] = target: B1; assay: ITC; 5 µM PtxR saturated beforehand with 50 µM duplex DNA of P_(toxA) holding the PtxR operator, titrated with 50 µM PtxS; 20°C, 50 mM HEPES pH 7.9, 300 mM NaCl, 1 mM dithiothreitol, 10% glycerol; two binding site model; details: both partners purified
PtxR K39A = PtxR K39A (Pseudomonas aeruginosa PAO1, UniProt P72131 1-312, K39A); assay: ITC; ITC: 50 mM HEPES pH 7.9, 300 mM NaCl, 1 mM DTT, 10% glycerol, 20 C. EMSA/footprint: 50 mM Tris-HCl pH 7.5, 10 mM NaCl, 0.5 M Mg acetate (so in the source), 0.1 mM EDTA, 1 mM DTT, 5% glycerol, 30 C; EMSA with 20 ug/ml poly(dIC), 200 ug/ml BSA; details: protein: recombinant; tags: C-terminal His6 (pET24b); chain copies: 4; blunt
PtxS [9] = target: T4, PtxS; assay: as above; details: protein: recombinant; tags: C-terminal His6 (pET24b); chain copies: 2; blunt
PtxR [10] = target: T5, PtxR; assay: as above; details: protein: recombinant; tags: C-terminal His6 (pET24b); chain copies: 4; blunt
PtxR R47A = PtxR R47A (Pseudomonas aeruginosa PAO1, UniProt P72131 1-312, R47A); assay: as above; details: protein: recombinant; tags: C-terminal His6 (pET24b); chain copies: 4; blunt
PtxR D52A = PtxR D52A (Pseudomonas aeruginosa PAO1, UniProt P72131 1-312, D52A); assay: as above; details: protein: recombinant; tags: C-terminal His6 (pET24b); chain copies: 4; blunt
PtxR E44A = PtxR E44A (Pseudomonas aeruginosa PAO1, UniProt P72131 1-312, E44A); assay: as above; details: protein: recombinant; tags: C-terminal His6 (pET24b); chain copies: 4; blunt
PtxR S40A = PtxR S40A (Pseudomonas aeruginosa PAO1, UniProt P72131 1-312, S40A); assay: as above; details: protein: recombinant; tags: C-terminal His6 (pET24b); chain copies: 4; blunt

## CCGTTGACGGCCTTGTCATCGGGCATGGTGGGGTCCTCTCTGGATCATCACGGTTTCGTCTTTCTGATAATGATTAGCAGGCTAATTATAAGTTCATGTGTCACGTTGAAAAAACGTTTCAGCAAGGATTCAGGCAGGCCAATACCGGCAAGTGAAGCAGAACGGCGCGCCGGGCGTCGGCCCGGCGCGGCCTTCAGGCGCCTCGCCGTCGCGCCCAGGCCGAAGGATTGACCAGGTTCAGCGGCC (double strand) [Pgad promoter fragment]
[1]
  binding: binds
[2]
  binding: binds
[3]
  binding: binds
[4]
  binding: binds
[5]
  binding: binds

## CAACTGATCGTTCGCGGCTCGACCCATCCACGCGGCTAGCGGCCCGCCGCCGGCGCGTTGCCGGCGGCTTTCGCACGGCTTGAAATGAAACCGGTTTCAGAGGATCGCCAATGTCCCTTCACCCCGTCTCCATCAGTCTTTCCAGCTATGGCGCGGACCTCGTTCGCAGTCGCGGCCAGGCCAGCTTCCTGCCCTTGCTGGCGATGGCCGGCGCGCAGCGCGTGGAACTGCGCGAGGAACTCTTCGCCGGCCCGCCGGATACCGAGGCGCTGACCGCCGCCATCCAGTT (double strand) [Pkgu promoter fragment]
[1]
  binding: binds
[2]
  binding: binds

## B1
PtxS [6]
  binding result: binds

## B2
PtxR [7]
  KD of the first, high affinity event: 12 ± 3 nM
  KD of the second, lower affinity event: 102 ± 10 nM
  dH of the first, high affinity event: -17.8 ± 0.9 kcal/mol
  dH of the second, lower affinity event: -9.1 ± 0.5 kcal/mol
  stoichiometry N: 1.02
PtxR [8]
  KD of the first event, PtxR bound to DNA: ~1700 nM
  KD of the second event, PtxR bound to DNA: ~8200 nM

## B3
PtxR K39A
  binding result: no binding
PtxS [9]
  binding result: no binding
PtxR [10]
  Kd: 164 ± 6 nM
PtxR R47A
  Kd: 240 ± 11 nM
PtxR D52A
  binding result: no binding
PtxR E44A
  binding result: no binding
PtxR S40A
  binding result: no binding

## B4
PtxR [10]
  binding result: no binding
